{"source": "patent US20230321209A1", "biological_target": "human Adenovirus capsid", "assay": "SPR, peptide on adenovirus capsid (FIGS. 13A-13B)"}
{"binder": "KKKKKKKRAKVTSAMQTMLFTMLRKL", "note": "[R1A_KRAKV SARS-CoV2 peptide with 6K poly-lysine tail]", "values": [{"measurement": "list of priority (rank by SPR binding, high binders listed first)", "result": 5, "unit": "rank"}]}
